Bridges are numbered along the chain shown (N, C = ends). Primed or numbered codes have the meaning given here. Where no end group is shown, it is not given here. [ ]: non-standard residue; d: D form. The star is where a group is joined. S5′ = (S)-2-(4'-pentenyl)alanine, olefinic stapling residue closed by ring-closing metathesis; NMeR′ = N-methylarginine (methylation site not shown in the text); PEG4″ = PEG4 (tetraethylene glycol) spacer; 2Nal = N[C@@H](Cc1ccc2ccccc2c1)C(=O)O; pentenylAla = 2-(4'-pentenyl)alanine; NMeR = CN[C@@H](CCCNC(=N)N)C(=O)O; Palmitoyl = CCCCCCCCCCCCCCCC(=O)*; Ala(cPr) = N[C@@H](CC1CC1)C(=O)O; NMeT = CN[C@H](C(=O)O)[C@@H](C)O; hArg = N=C(N)NCCCC[C@H](N)C(=O)O; NMeQ = CN[C@@H](CCC(N)=O)C(=O)O; dNMeQ = CN[C@H](CCC(N)=O)C(=O)O; Cha = N[C@@H](CC1CCCCC1)C(=O)O; NMeL = CN[C@@H](CC(C)C)C(=O)O; Cba = N[C@@H](CC1CCC1)C(=O)O; S5 = C=CCCC[C@](C)(N)C(=O)O; Nle = CCCC[C@H](N)C(=O)O; Abu = CC[C@H](N)C(=O)O; βAla = NCCC(=O)O
Target: T1, β-catenin (UniProt P35222 1-781, limits assumed)
T1 construct: also called beta-catenin
T1 sequence (looked up): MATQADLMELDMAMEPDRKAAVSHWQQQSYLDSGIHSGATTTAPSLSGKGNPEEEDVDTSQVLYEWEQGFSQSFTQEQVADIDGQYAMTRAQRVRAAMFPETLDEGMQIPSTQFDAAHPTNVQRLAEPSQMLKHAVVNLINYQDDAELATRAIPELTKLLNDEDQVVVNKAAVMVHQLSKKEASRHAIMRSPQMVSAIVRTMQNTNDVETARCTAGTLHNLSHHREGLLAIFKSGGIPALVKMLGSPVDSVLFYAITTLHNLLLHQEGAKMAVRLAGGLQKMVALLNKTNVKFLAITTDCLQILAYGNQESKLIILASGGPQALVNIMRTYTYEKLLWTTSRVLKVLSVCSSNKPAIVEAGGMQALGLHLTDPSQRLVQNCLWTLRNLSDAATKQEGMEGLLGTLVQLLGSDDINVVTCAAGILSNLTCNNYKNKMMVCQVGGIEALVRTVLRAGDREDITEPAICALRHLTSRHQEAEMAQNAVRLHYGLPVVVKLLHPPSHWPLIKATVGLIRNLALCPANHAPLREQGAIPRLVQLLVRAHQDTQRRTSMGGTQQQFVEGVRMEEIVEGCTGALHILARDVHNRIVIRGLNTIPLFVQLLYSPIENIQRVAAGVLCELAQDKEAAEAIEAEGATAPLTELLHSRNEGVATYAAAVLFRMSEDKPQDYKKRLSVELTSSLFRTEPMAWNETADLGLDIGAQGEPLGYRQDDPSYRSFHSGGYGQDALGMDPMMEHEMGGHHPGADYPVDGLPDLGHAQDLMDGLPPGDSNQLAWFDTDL
Experiment: ALPHA Screen (BCL9/β-catenin);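 note: bead proximity readout with the polypeptide linked to donor beads and β-catenin fixed on acceptor beads, their binding bringing the beads close enough to emit signal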

B1: SEQ ID NO: 122 (peptide)
peptide: Ac-LQTLR[S5]IQR[S5][Cha][2Nal]-NH2
modifications: staple 6-10; not fully specified (residue 2); printed as L(N-methylQ)TLRXIQRX(Cha)(2-Nal)
IC50: 7170 nM

R[pentenylAla][Ala(cPr)][dNMeQ][pentenylAla][Ala(cPr)]R[pentenylAla]IQR[pentenylAla][Ala(cPr)][2Nal][βAla][βAla] (staple 8-12, 2-5) [SEQ ID NO: 89]
IC50: 2460 nM

Ac-RE[S5]SLQ[S5]LR[S5]IQR[S5]L[2Nal]-NH2 (staple 10-14, 3-7; not fully specified; printed as REXSLQXLRZIQRZL(2-Nal)) [SEQ ID NO: 39]
IC50: 2200 nM

RSLQTLRDIQRML[2Nal] [SEQ ID NO: 57]
IC50: 13600 nM

Ac-LQTLR[S5]IQR[S5]L[2Nal][βAla][βAla]-NH2 (staple 6-10; not fully specified; printed as LQTLRXIQRXL(2-Nal)(β-Ala)(β-Ala)) [SEQ ID NO: 34]
IC50: 9620 nM

Ac-LQTLR[S5]IQA[S5]L[2Nal]AA-NH2 (staple 6-10; not fully specified; printed as LQTLRXIQAXL(2-Nal)AA) [SEQ ID NO: 27]
IC50: 6120 nM

B2: SEQ ID NO: 121 (peptide)
peptide: Ac-LQ[NMeT]LR[S5]IQR[S5][Cba][2Nal]-NH2
modifications: staple 6-10; not fully specified (residue 2); printed as L(N-methylQ)(N-methylT)LRXIQRX(CBA)(2-Nal)
IC50: 5010 nM

HRERSLQTLRDIQRML[2Nal] [SEQ ID NO: 61]
IC50: 1380 nM

B3: SEQ ID NO: 118 (peptide)
peptide: Ac-[NMeL]QTLR[S5]IQR[S5][Cba][2Nal]-NH2
modifications: staple 6-10; not fully specified (residue 2); printed as (Me-L)(N-MeQ)TLRXIQRX(CBA)(2-Nal)
IC50: 6330 nM

Ac-HRE[S5′]SLQ[S5′]LR[Nle]IQR[Nle]L[2Nal]-OH (staple 4-8) [SEQ ID NO: 80]
IC50: 5330 nM

Ac-HRE[S5′]SLQ[S5′]LR[Nle]IQR[Nle][Cba][2Nal]-OH (staple 4-8) [SEQ ID NO: 81]
IC50: 45500 nM

B4: SEQ ID NO: 124 (peptide)
peptide: Ac-L[NMeQ]TL[NMeR′][S5]IQR[S5][Cba][2Nal]-NH2
modifications: staple 6-10; not fully specified; printed as L(N-methylQ)TL(N-methylR)XIQRX(CBA)(2-Nal)
IC50: 2740 nM

LQTLRDIQRML[2Nal] [SEQ ID NO: 51]
IC50: 5780 nM

B5: SEQ ID NO: 120 (peptide)
peptide: HOCH2CH2CO-LQTLR[S5]IQR[S5][Cba][2Nal]-NH2
modifications: staple 6-10; not fully specified (residue 2); printed as L(N-methylQ)TLRXIQRX(CBA)(2-Nal)
IC50: 5440 nM

B6: SEQ ID NO: 125 (peptide)
peptide: Ac-L[NMeQ]TLR[S5]IQ[NMeR′][S5][Cba][2Nal]-NH2
modifications: staple 6-10; not fully specified; printed as L(N-methylQ)TLRXIQ(N-methylR)X(CBA)(2-Nal)
IC50: 10600 nM

Ac-LQTLR[S5]IQR[S5]L[2Nal]P-NH2 (staple 6-10; not fully specified; printed as LQTLRXIQRXL(2-Nal)P) [SEQ ID NO: 33]
IC50: 11800 nM

{Palmitoyl-PEG4″}-H[hArg]QRSLQTLR[S5]IQR[S5][Cha][2Nal]-NH2 (staple 11-15) [SEQ ID NO: 209]
IC50: 253 nM

Ac-LQTLR[S5]IQR[S5]L[2Nal]PD-NH2 (staple 6-10; not fully specified; printed as LQTLRXIQRXL(2-Nal)PD) [SEQ ID NO: 32]
IC50: 12200 nM

Ac-QLEHRERSLQTLR[S5]IQR[S5]L[2Nal]-NH2 (staple 14-18; not fully specified; printed as QLEHRERSLQTLRXIQRXL(2-Nal)) [SEQ ID NO: 8]
IC50: 770 nM

Ac-HR[S5′]RSL[S5′]TLR[S5′]IQR[S5′][Cba][2Nal]-NH2 (staple 11-15, 3-7) [SEQ ID NO: 94]
IC50: 175 nM

EHRERSLQTLR[Nle]IQR[Nle]L[2Nal] [SEQ ID NO: 64]
IC50: 1730 nM

LR[Nle]IQR[Nle]L[2Nal] [SEQ ID NO: 50]
IC50: 2540 nM

EHRERSLQTLRDIQRML[2Nal] [SEQ ID NO: 63]
IC50: 2500 nM

B7: SEQ ID NO: 119 (peptide)
peptide: Ac-LQTLR[S5]IQR[S5][Ala(cPr)][2Nal]-NH2
modifications: staple 6-10; not fully specified (residue 2); printed as LN(Me-Gln)TLRXIQRX(Cpa)(2-Nal)
IC50: 15800 nM

Ac-QLEHRERSL[S5]TLR[S5]IQR[Abu]L[2Nal][βAla][βAla]-NH2 (staple 10-14) [SEQ ID NO: 78]
IC50: 90 nM

RSLQTLR[Nle]IQR[Nle]L[2Nal] [SEQ ID NO: 58]
IC50: 2840 nM

Ac-LQTLR[S5]IQR[S5][Cba][2Nal]-NH2 (staple 6-10) [SEQ ID NO: 107]
IC50: 316 nM

RERSLQTLRDIQRML[2Nal] [SEQ ID NO: 59]
IC50: 5950 nM

Ac-LQTL[NMeR][S5]IQR[S5][Cba][2Nal]-NH2 (staple 6-10; not fully specified (residue 2)) [SEQ ID NO: 117]
IC50: 4230 nM

B8: SEQ ID NO: 40 (peptide)
peptide: Ac-RE[S5]SLQ[S5]LR[S5]IQR[S5]L[2Nal][βAla][βAla]-NH2
modifications: staple 10-14, 3-7; not fully specified; printed as REXaa1SLQXaa2LRXaa3IQRXaa4L(2-Nal)(β-Ala)(β-Ala)
IC50: 2380 nM

Ac-QLEHRERSL[S5]TLR[S5]IQRML[2Nal]-NH2 (staple 10-14; not fully specified; printed as QLEHRERSLXTLRXIQRML(2-Nal)) [SEQ ID NO: 36]
IC50: 940 nM

HRERSLQTLR[Nle]IQR[Nle]L[2Nal] [SEQ ID NO: 62]
IC50: 840 nM

H-HRE[S5′]SLQ[S5′]LR[S5′]IQR[S5′][Cba][2Nal]-OH (staple 11-15, 4-8) [SEQ ID NO: 82]
IC50: 1010 nM

Ac-HRQ[S5′]SLQ[S5′]LR[S5′]IQR[S5′][Cba][2Nal]-NH2 (staple 11-15, 4-8) [SEQ ID NO: 87]
IC50: 2660 nM

Ac-HRE[S5′]SLQ[S5′]LR[S5′]IQQ[S5′][Cba][2Nal]-OH (staple 11-15, 4-8) [SEQ ID NO: 83]
IC50: 50000 nM

QLEHRERSLQTLRDIQRML[2Nal] [SEQ ID NO: 65]
IC50: 1640 nM

QLEHRERSL[Nle]TLR[Nle]IQRML[2Nal] [SEQ ID NO: 67]
IC50: 1080 nM

QLEHRERSLQTLR[Nle]IQR[Nle]L[2Nal] [SEQ ID NO: 66]
IC50: 730 nM

LR[Nle]IQR[Nle]L[2Nal][βAla][βAla] [SEQ ID NO: 49]
IC50: 6710 nM

RERSLQTLR[Nle]IQR[Nle]L[2Nal] [SEQ ID NO: 60]
IC50: 2420 nM

— US20200262867A1 (WNTRX PHARMACEUTICALS, published 2020)
